{"source": "paper PMC4783868", "about": "(Nature, 2015)", "biological_target": "T1, PB2 subunit of the influenza C/Johannesburg/1/1966 virus polymerase (FluPolC) (influenza C/Johannesburg/1/1966 virus, UniProt Q9IMP3)", "T1 sequence": "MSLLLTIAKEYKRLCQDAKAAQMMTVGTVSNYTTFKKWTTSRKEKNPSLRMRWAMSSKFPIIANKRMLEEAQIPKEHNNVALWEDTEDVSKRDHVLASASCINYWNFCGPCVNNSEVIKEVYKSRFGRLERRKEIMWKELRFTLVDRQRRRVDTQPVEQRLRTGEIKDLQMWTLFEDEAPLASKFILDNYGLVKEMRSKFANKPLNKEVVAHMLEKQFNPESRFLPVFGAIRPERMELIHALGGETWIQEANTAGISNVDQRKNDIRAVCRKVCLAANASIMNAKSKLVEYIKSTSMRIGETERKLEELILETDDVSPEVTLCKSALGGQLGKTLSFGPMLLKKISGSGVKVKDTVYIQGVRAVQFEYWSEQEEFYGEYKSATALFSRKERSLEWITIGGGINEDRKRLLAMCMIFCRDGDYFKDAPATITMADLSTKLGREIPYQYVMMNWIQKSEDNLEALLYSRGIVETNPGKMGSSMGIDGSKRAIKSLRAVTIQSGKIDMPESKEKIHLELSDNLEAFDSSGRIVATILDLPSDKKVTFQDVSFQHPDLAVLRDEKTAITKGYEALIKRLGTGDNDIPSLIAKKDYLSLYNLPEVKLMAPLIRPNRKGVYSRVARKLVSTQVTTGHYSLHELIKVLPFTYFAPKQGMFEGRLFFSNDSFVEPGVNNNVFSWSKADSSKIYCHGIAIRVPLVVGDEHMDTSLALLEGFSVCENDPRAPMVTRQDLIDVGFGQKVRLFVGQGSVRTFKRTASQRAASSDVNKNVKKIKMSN", "test": "crystal structure", "data": [{"binder": "P3 subunit of the influenza C/Johannesburg/1/1966 virus polymerase (FluPolC) (natural protein) MSKTFAEIAEAFLEPEAVRIAKEAVEEYGDHERKIIQIGIHFQVCCMFCDEYLSTNGSDRFVLIEGRKRGTAVSLQNELCKSYDLEPLPFLCDIFDREEKQFVEIGITRKADDSYFQSKFGKLGNSCKIFVFSYDGRLDKNCEGPMEEQKLRIFSFLATAADFLRKENMFNEIFLPDNEETIIEMKKGKTFLELRDESVPLPFQTYEQMKDYCEKFKGNPRELASKVSQMQSNIKLPIKHYEQNKFRQIRLPKGPMAPYTHKFLMEEAWMFTKISDPERSRAGEILIDFFKKGNLSAIRPKDKPLQGKYPIHYKNLWNQIKAAIADRTMVINENDHSEFLGGIGRASKKIPEISLTQDVITTEGLKQSENKLPEPRSFPRWFNAEWMWAIKDSDLTGWVPMAEYPPADNELEDYAEHLNKTMEGVLQGTNCAREMGKCILTVGALMTECRLFPGKIKVVPIYARSKERKSMQEGLPVPSEMDCLFGICVKSKSHLNKDDGMYTIITFEFSIREPNLEKHQKYTVFEAGHTTVRMKKGESVIGREVPLYLYCRTTALSKIKNDWLSKARRCFITTMDTVETICLRESAKAEENLVEKTLNEKQMWIGKKNGELIAQPLREALRVQLVQQFYFCIYNDSQLEGFCNEQKKILMALEGDKKNKSSFGFNPEGLLEKIEECLINNPMCLFMAQRLNELVIEASKRGAKFFKTD", "values": [{"measurement": "binding result", "value": "binds"}]}, {"binder": "PB1 subunit of the influenza C/Johannesburg/1/1966 virus polymerase (FluPolC) (natural protein) MEINPYLMFLNNDVTSLISTTYPYTGPPPMSHGSSTKYTLETIKRTYDYSRTSVEKTSKVFNIPRRKFCNCLEDKDELVKPTGNVDISSLLGLAEMMEKRMGEGFFKHCVMEAETEILKMHFSRLTEGRQTYDWTSERNMPAATALQLTVDAIKETEGPFKGTTMLEYCNKMIEMLDWKEIKFKKVKTVVRREKDKRSGKEIKTKVPVMGIDSIKHDEFLIRALTINTMAKDGERGKLQRRAIATPGMIVRPFSKIVETVAQKICEKLKESGLPVGGNEKKAKLKTTVTSLNARMNSDQFAVNITGDNSKWNECQQPEAYLALLAYITKDSSDLMKDLCSVAPVLFCNKFVKLGQGIRLSNKRKTKEVIIKAEKMGKYKNLMREEYKNLFEPLEKYIQKDVCFLPGGMLMGMFNMLSTVLGVSTLCYMDEELKAKGCFWTGLQSSDDFVLFAVASNWSNIHWTIRRFNAVCKLIGINMSLEKSYGSLPELFEFTSMFFDGEFVSNLAMELPAFTTAGVNEGVDFTAAMSIIKTNMINNSLSPSTALMALRICLQEFRATYRVHPWDSRVKGGRMKIINEFIKTIENKDGLLIADGGKLMNNISTLHIPEEVLKFEKMDEQYRNRVFNPKNPFTNFDKTIDIFRAHGPIRVEENEAVVSTHSFRTRANRTLLNTDMRAMMAEEKRYQMVCDMFKSVFESADINPPIGAMSIGEAIEEKLLERAKMKRDIGAIEDSEYEEIKDIIRDAKKARLESR", "values": [{"measurement": "binding result", "value": "binds"}]}]}
